{
  "source": "a protein production outcome set (Wang et al. 2014)",
  "data": [
    {"test": "label from the status in PepcDB records", "values": [
      {"sequence": "MKKAIQFGAGNIGRGFIGGLLVKSGYHVVFADVNEYILNSINKDKKYTIHIRDVECIDEVIDNISAVSSIKEEIIDEIVQAEIITTAVGPLVLTKIASTIAKGIKARKEKGLTSNLNIIACENAIYASSSLKEEVLKYLNKEEVEYLEMYVGFPNCSVDRIVPPGKNENPLDVTVENFYEWNVEKQGFKGEIPTIVGMNLADNLMAYIERKLFTLNTGHAITAYIGYLKGYKTIEESIKDKFICDIVKSAMVESGEGLIKKYNFDSEVHYKYIDKILNRFKNPYLNDDVLRVGREPLRKLSDKDRLIKPLMTAKSYGLSVDNLILGIGAALHYNNSEDTQSVELQELIKSIGVKKAVAKIANISNDEELLNNIEKSYIFMKNL", "protein production": "not failed"},
      {"sequence": "MKKAKSRIAILGTGGTIAGFIDSTIATTGYAAGAIDIDVLIKAVPQIRDLADISWEQIANIDSSNMCDEIWLRLAKKIAKLFAEGIDGVVITHGTDTMEETAYFLNLTIKSDKPVVLVGAMRPSTAISADGPKNLYNAVALVVNKEAKNKGVMVAINDKILSARGVVKTHSLNVDAFSSPDFGDLGYIVDGKVFFYNNVIKAHTKNAPFDVSKLTSLPKVDILYSYSNDGSGVAAKALFEHGTKGIVVAGSGAGSIHKNQKDVLKELLKKGLKVVVSSRVVAGCVAVSDSDEKLGFISAEDLNPQKARVLLMLALTKTSDPKKIQEYFLKY", "protein production": "not failed"},
      {"sequence": "MKKASFVYSENQLSYQFHSTHPFNHQRLRLTYDLLKSMDALDDSEIVAPRVATEAELRLIHDQAFIDAVKAAGNGTLSDGVALNYGLGTEDTPIFKNMHEAAALLVGGTLTAVDQVMEGHAEHACHLGGGLHHGFRGKASGFCVYNDSSIAIEYMRRKFGARVLYIDTDAHHGDGVQWAFYEEDDVCTLSIHETGRYLFPGTGNFNEKGQGEGYGYSINIPLDAFTEDDSFLFAYEQAVTNVVKFFKPDVILTQNGADAHFHDPLTHLCASMRTFRYIPQLAHALAHEYCEGRWIAVGGGGYDIWRVVPRAWAMIWLEMTDQLQKANGPLPERWLSKWTTYAQHPLPSHWEDENEELPTIPRRDEITEKNKKIVEKALYHIYTELKTQT", "protein production": "failed"},
      {"sequence": "MKKATIAATAGIAVTAFAAPTIASASTVVVEAGDTLWGIAQSKGTTVDAIKKANNLTTDKIVPGQKLQVNNEVAAAEKTEKSVSATWLNVRSGAGVDNSIITSIKGGTKVTVETTESNGWHKITYNDGKTGFVNGKYLTDKAVSTPVAPTQEVKKETTTQQAAPAAETKTEVKQTTQATTPAPKVAETKETPVVDQNATTHAVKSGDTIWALSVKYGVSVQDIMSWNNLSSSSIYVGQKLAIKQTANTATPKAEVKTEAPAAEKQAAPVVKENTNTNTATTEKKETATQQQTAPKAPTEAAKPAPAPSTNTNANKTNTNTNTNTNTNNTNTNTPSKNTNTNSNTNTNTNSNTNANQGSSNNNSNSSASAIIAEAQKHLGKAYSWGGNGPTTFDCSGYTKYVFAKAGISLPRTSGAQYASTTRISESQAKPGDLVFFDYGSGISHVGIYVGNGQMINAQDNGVKYDNIHGSGWGKYLVGFGRV", "protein production": "failed"},
      {"sequence": "MKKAVVVFSGGQDSTTCLVQALKEFDEVHAITFDYGQRHKLEIEVAQKIAKDLGVKAHKVMDVGLLNELAISSLTRDDIPVSHELQENGLPNSFVPGRNILFLTLAGIYAYQIGADTVITGVCETDFSGYPDCRDDFVKSMNTALVKGMDRALTIKTPLMWLNKAETWALADQYNALQLVRENTLTCYNGIIGDGCGDCPSCDLRKAGLDEYLNNKDAVMKSLVQKQESEGL", "protein production": "failed"},
      {"sequence": "MKKDSTIAFTGGRILTMDSEQKYAEAVVIRGDRIAAVGGTYILKSFPDAEIRDLKNRYLLPAFIDSHNHLSSFGCLEHHHHHH", "protein production": "not failed"},
      {"sequence": "MKKFQEMCQEEFEKIELMARGGQKIVFDGVHNSYGETVIKLYFQLNDPRSLREIQIERDLNLSMVPKIYETGTIEYEGTETLYIIEQKVKGTELRKVLESGKRFSLEEAVTFLEQGLEFIACIENKGIVHRDIKPENIIRADDGRIFFLDFGIARILGADSLTRTGAMMGPHTPGYAAPEQFNNLKKEIDSRADIFSLGVVTYECITGKNPFREGSINALEVLQKTETITPVQYSIKGDTQSQFMALLGAMMGKYPSRRPRTAKQAIDWLKVAKKTFVYE", "protein production": "failed"},
      {"sequence": "MKKFYFLILGIVLCGMVAQAQNSYEGHIGFGQHHVVRKGGELNVEVSLDLGAVKLAAQQMIVLTPVLRSTEGEEQQQLAPVVIAGPRRYRVLKRSLAFGTDNFEMSPMLVEKRKSGTPQTVNLHFGLPYHEWMRRAELILREEVTGCADCPVSQGDHTVITSVFDEQFTPRYELSYVTPPVEPLKQRSETHTAYLNFEVDKYVLLRNYKNNANVLADVDRIVNEIQNDSNLTVTEFRVTGYASPEGNYSRNMKLSENRALAFVGYLQNHGGVDESLLTVDWKGEDWSGLRREVAASSLIDKGAILAVIDGHTDFATRKNRLQALNGGTTYRMLLRDYYPPLRRNEYTISYVARAFNVDEAKQLIKTKPQYLSLNEMFLVANTYPKDSGEFKEVFDIAARIYPDDPVARLNTAALELENGAIDAAIVRLQKSDMPEAWNNLGIAYILKQDYKKGGEYLEKAIDAGIQAAAYNMGQLAAWLKTQE", "protein production": "failed"},
      {"sequence": "MKKGIFTALLFTVIVALYSLHLANGKCVYKSNISSLLLENIEALAADEDGSDDGEVVGGKIRCIDVGSLDCPLTHEKVKYIVRGYSL", "protein production": "failed"},
      {"sequence": "MKKGSLAIVLGSLLASGAFYTALADGMPAKQQHNNTGESVELHFHYPIKGKQEPKNSHLVVLIEPKIEINKVIPESYQKEFEKSLFLQLSSFLERKGYSVSQFKDASEIPQDIKEKALLVLRMDGNVAILEDIVEESDALSEEKVIDMSSGYLNLNFVEPKSEDIIHSFGIDVSKIKAVIERVELRRTNSGGFVPKTFVHRIKETDHDQAIRKIMNQAYHKVMVHITKELSKKHMEHYEKVSSEMKKRK", "protein production": "failed"},
      {"sequence": "MKKGVLIAFEGIDGSGKSSQATLLKDWIELKRDVYLTEWNSSDWIHDIIKEAKKKDLLTPLTFSLIHATDFSDRYERYILPMLKSGFIVISDRYIYTAYARDSVRGVDIDWVKKLYSFAIKPDITFYIRVSPDIALERIKKSKRKIKPQEAGADIFPGLSPEEGFLKYQGLITEVYDKLVKDENFIVIDGTKTPKEIQIQIRKFVGELIDNSF", "protein production": "not failed"},
      {"sequence": "MKKIAIFGSAFNPPSLGHKSVIESLSHFDLVLLEPSIAHAWGKNMLDYPIRCKLVDAFIKDMGLSNVQRSDLEQALYQPGQSVTTYALLEKIQEIYPTADITFVIGPDNFFKFAKFYKAEEITERWTVMACPEKVKIRSTDIRNALIEGKDISTYTTPTVSELLLNEGLYRETLSGK", "protein production": "not failed"},
      {"sequence": "MKKIGIIGAGGIARAHATALSTIKNAELVGVYDINQQNAESFVKTFGGKSFENVDELIDASEGLIVASPNFCHKEHALQALGKHKHVLCEKPMAISLEEASIMKDTAERLSVRASMGFNYRYLSYVNILKSLIINNELGNILSIKVHFKKNSALRRKKFTWRDDANSKKTSGSLGDLGIHLIDMVWYLFESDFITESVRAKMNTNVKTKEDKQVLVDDYAEIYGQLRNKVFVNIITSKCSVPEDCGFSIEVVGHKKEFKYHTGNPHVYKLIDGLNVVDCPVPQSLLNDPPNEFYGWADSFRSELINWIASTQNDWVEIPSFSDGFRSQEVLEMFFEKDSNSQPLEHHHHHH", "protein production": "not failed"},
      {"sequence": "MKKIISLALALALSASAAELKMATTTSTDNTGLLDALKPLYEKESGNTLKWVAVGTGAALKMGEDCNADVLFVHSPKAEKEFMKKGFGVDRTPVMYNDFIIIADKSLASKFKGKNLKESLELIKNEKLTFISRGDKSGTDNKEKSLWKNLGGVPEKQSWYQQSGQGMLASIKIAEEKKGVILTDRGTYIKYEANEKGKPNLVIVNEGDDSLKNFYSVIATNPKHCKNVNYTEASKFIKWVTSDKTLNFIADFKLLNKPLFVIDAKTRKD", "protein production": "failed"},
      {"sequence": "MKKILAFLLIAAGSTLFFVFLFIFLSKVFSGEILLSRYIFRIGGFELRWYSTLILMGFLISYFVARKRAKNEGINLEEFDELIFYGVIAGIVGARLYYVLFNLKYYRSLWDALKIWEGGLAIHGAVIGALLTGFLYVRLKKPSFTFLQATDLFTSVLPLGQAIGRWGNFFNYEAFGVPTNLPWKMFVPEPYRPVVYKDYSFFHPTFLYESIWDLLVFFMLSVYFKRYRKRHGEVTCLYFVLYSLGRIVIERLRVDSLMIGNIKAAQLLSAVLILLGFTGFLILRSSQEPKRAF", "protein production": "failed"},
      {"sequence": "MKKILASMAVASVAGGTVIGTAQAQTSIAPEDTQSKQASDVVTHENRVTVNVDALRVRTGPSTSNTILGLVSKEQSVPVVDETEDWYKIKYNNTEAYVNKEYATPNHIKVSTTTLRVRTGPSTSNSILGLVGEGEILQVTGEADGWYKIKYNNRDAYVSKDYVSINKSLVKSKKQKVQASRSYTVNVSSLRVRTGPSMSHPVVSVMNKGQVVQVVGEVQDWYRVKLNEGFAYINKDYVSRGTNNTANLPQSIQTESVQQNGTYIVDAAVLRVRTGPANYHPVIGGVLKGQSLQVVDIENGWYKIKYNNRTGYVSGEFVKFLKGSSTQEQTQTKEKLEQAQQPNHEQEKQEVAQQSTREQEKQEVAQQPTREQEKQEVVQQPTREQEKQEPAQNYYVKSSSLNVRSGAGMNYEVIGVVEPNQKIQVVGQQAGWYKINYNGKTGFVGMNYLSKTKVATVEEQPPSEVGTTNENTASGFIKPAAGSYTSGFEKRGGQMHYGLDIAASGTVSVSAAADGVVTRSYYSESYGNVVFISHNMNGQTYTTVYAHLNSRSVSAGQSVKQGQQIGFMGNTGQSEGQHLHFEVHKGEWNAQKSNAVNPKLYIK", "protein production": "failed"},
      {"sequence": "MKKILVGIPNYNNAAYIVDTIESVLKQSYSGVDVVVFDNASTDDSVEIIENTFLNNPNVLLKKSASNVGPTMNHNRCLEYAIDNEYDYLKVLSSDDVLLPNIIQEQFELLESEPRGAFATCNMIVTDDKLTKIKDHDFLGSNTDGNAVIKKCASHSANYIGGPSNGLLRVSCIGATRFSPEYKWLSDLKFYCDLLANRPFINTGTNGFFYRRHDNTDSSHVSKIKNLQRKESIRFSGEYGGNFLTKIKIYLRDIKSRLLLEHHHHHH", "protein production": "failed"},
      {"sequence": "MKKILVIRNDKIGDFMVCFPAFAMLKQSMPNAEITALVPSYTASLAELCPSIDNVIIDTPNKKDKTEFNRVLQAVKNAQFDAVICFVSDWYNAKLTWKSGIKHRLAPATKVFQFLYNQRLEHHHHHH", "protein production": "failed"},
      {"sequence": "MKKKALLPLFLGIMIFLAGCDYSTPEKQDGFFFNTFVQPMKHLLQWLGNDVFHNNFGLAIIVLVLFIRLILLPFMLSNYKNSHMMREKMKVAKPEVDGIQEKVKRARTQEEKMAANQELMEVYKKYDMNPMKSMLGCLPILIQMPIIMGLYFVLKDKLVNGLSEHPHFLWFNLTKPDIWITVIAGVLYFIQAVVSSKTMPQEQRQMGYMMMVISPIMIIWISLQASSALGLYWSVSALFLVIQTHFANIYYSKLAKKEVQPFIEKYEREHNPYSKKKGKNTQVVSKKNKK", "protein production": "failed"},
      {"sequence": "MKKKIIIAIVASAITMTHFVGNTYADSKTEVSVTAPYNTNQIAKWLEAHAKPLKTTNPTASLNDLKPLKNMVGSASIVGLGEATHGAHEVFTMKHRIVKYLVSEKGFTNLVLEEGWDRALELDRYVLTGKGNPSQHLTPVFKTKEMLDLLDWIRQYNANPKHKSKVRVIGMDIQSVNENVYNNIIEYIKANNSKLLPRVEEKIKGLIPVTKDMNTFESLTKEEKEKYVLDAKQISALLEENKSYLNGKSKEFAWIKQNARIIEQFTTMLATPPDKPADFYLKHDIAMYENAKWTEEHLGKTIVWGHNGHVSKTNMLSFIYPKVAGQHLAEYYGKRYVSIGTSVYEGQYNVKNSDGEFGPYGTLKSDDPNSYNYIFGQVKKDQFFIDLRKANGVTKTWLNEQHPIFAGITTEGPDIPKTVDISLGKAFDILVQIQKVSPSQVHQLEHHHHHH", "protein production": "not failed"}
    ]}
  ]
}
